Tested on: Saccharomyces cerevisiae
Test: transcriptional activation domain activity (GFP:mCherry ratio, weighted mean of sorted bins, harmonized to initial dataset scale) (arbitrary fluorescence ratio units); higher = stronger transcriptional activation
Conditions: beta-estradiol 1 µM; induction time 4 h
Method in brief: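 Activation activity, the read-weighted mean of bin median fluorescence averaged across barcodes, was linearly mapped onto the scale of the initial dataset. It was measured for barcoded protein tiles fused to an estradiol-inducible synthetic transcription factor at URA3 in GFP-reporter yeast diploids. Cultures diluted 1:5 into SC with 1 uM beta-estradiol were held 4 hours at 30 °C, sorted into 8 bins by GFP:mCherry ratio, and barcode-sequenced, and tiles under 50 reads were discarded.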

## KQYCVRPNSGRIEPGRDVEVQVLLQAMREDPPPDAKCRDKFLVQSVAVTADKE
  transcriptional activation domain activity: 44900

## KQYCVRPNSGRIEPGREVEVSVLLQAMKQEPAPDARCRDKFLVQSVTITSDQE
  transcriptional activation domain activity: 20500

## KQYCVRPNSGRIEPGSDVEVQILLQAMKEDPPLEAKCRDKFLVQSVAVSADKE
  transcriptional activation domain activity: 45400

## KQYCVRPNSGRIESGKEVEVQVLLQAMKNDPPADYKCRDKFLVQSVAITADRE
  transcriptional activation domain activity: 53400

## KQYCVRPNSGRIEVGSEVEVQVLLQAMREDPPPDARCRDKFLVQSVAITPERD
  transcriptional activation domain activity: 42800

## KRCFSLFFFFFFSFLPFLFLFLSPYCLLNTFVPFSFSFLIYLILLLKFNLSAE
  transcriptional activation domain activity: 48900

## KREDIVRVVNGIFCCYILTFSLFFLFFLVYPSLCFLCLFPLCGVLSFFYLYFP
  transcriptional activation domain activity: 20900

## KREQREKEKEAEREREREKAARAARRESRREERTRREDEKERGARHEERTSRY
  transcriptional activation domain activity: 28000

## KRGEGEAGKESGRQRRSGSAGERAGRRGEGSKEGAEGESEASREKGNKRNDEE
  transcriptional activation domain activity: 32800

## KRGRPAKKAQEEVEVEEAAPAKRGRKAVAKEEPAKKETKAKPTTKSRGTKRAA
  transcriptional activation domain activity: 38600

## KRHAKRRRDKRKQKEKKNSKRDESSSASDSDRRSQSSSRRSRSSSAGSKRSTR
  transcriptional activation domain activity: 17400

## KRHLPWPWNGERLIFILQDVWVPNFNEHHLLWTLDLKRKGLTFIALTNVWGIY
  transcriptional activation domain activity: 50300

## KRKACLVCDLICTLLLQGLVSNEELRIDYSHRRCDLWRRQRWIGFVTPLSILE
  transcriptional activation domain activity: 36400

## KRKDAAKKKSEREWKDRVKGVEKAGRDRQKRREENIRKRKEEKGRGKGKKGKG
  transcriptional activation domain activity: 6830

## KRKDGNGGAGREMKRGERDASPAKGKGASAARGRGGRGRGGRRGGSRGGKKRG
  transcriptional activation domain activity: 32600

## KRKPRRPVRVDKDPEEEEEEDKEEEEEEEEDPRGKEKKKAKPKRKAKAKAAED
  transcriptional activation domain activity: 21400

## KRNKPNACGGCGAESDENGGALMMCSRCKDRKYCGAECQKTHWKVHKKVCEVA
  transcriptional activation domain activity: 58500

## KRPRKKKQQKAAAEEAAEPAGSGDEAAAPPEPKKRRKGKLRKEGDKNGNAAPA
  transcriptional activation domain activity: 28500

## KRPTSHTLRPFFYFLLAVIYTVAHALVMIYQMISLNVAVNSYDNALLTLLVSN
  transcriptional activation domain activity: 52200

## KRQKSRKGSESDAESEGEGDRGGARAYGKSRPQGRSADARADRKSAKGARAPQ
  transcriptional activation domain activity: 34200

## KRREKRKKRKQRDQGRKKTKKDGVGEPSNEGGEDDNGESGKDDDDQGKESDKD
  transcriptional activation domain activity: 29600

## KRRGDQGKEQDRKGGEGGEEERGNGARGGGSARKEGDKGGEQKEGGRQRERAG
  transcriptional activation domain activity: 41700

## KRRRWQLALLLLFWFAWLATFITVIHNSRFVSKVNGQDPYLLSCTSVLWSKNN
  transcriptional activation domain activity: 47100

## KRSKSPDSRHSSSRKRSRSRERKHKSSRKRSKSREGKIKKSKSEKHRSHKHKR
  transcriptional activation domain activity: 46300

## KRSRKHSSREDVGEEGEDRRSEHRERKKEKEREKDKEKDKDRSRSRHKRSRSD
  transcriptional activation domain activity: 53600

## KRVKKEETVEKKPAVETEAPKKRGRKAAVSASAEEPKAAPAKRSRRKVSATAA
  transcriptional activation domain activity: 13300

## KSDAAAQVPSRGQKRDRDGDEEGSDAEAGVPGTPIRSSRKTKKRGKKSKEPRE
  transcriptional activation domain activity: 50200

## KSDVEADRQRLIYSGKVLKDDDILSSCKIQSGHTVHMVKGAARAAAASSSSAP
  transcriptional activation domain activity: 58300

## KSEKPEKERKHRDKGEREHRDRSEREHKVREPKEPREKGEKEKRHKTAEEKAG
  transcriptional activation domain activity: 16900

## KSGCGYILGHINIFQPINWILVTSSKVFPIDYILFLLLVMFFFSASIVGIATV
  transcriptional activation domain activity: 34400

## KSGRGGGRKGGRGGGKASARGGAGGARGGGGGGRGGGGAHTERGRTGKGAGAS
  transcriptional activation domain activity: 21800

## KSKAANAKGKKKGKKGKKNKKGKKGKKAKNAKKAKAVKVAKAPVAKAPAPAAK
  transcriptional activation domain activity: 17700

## KSKKKRRMEEEEEGDEEEEEEQREREEERGERGEREARVRREGKAKKSASSRD
  transcriptional activation domain activity: 17300

## KSKKKRRSKRKPKNQKKKTTGKDAQEHLDDEQTRNLEDGQDDKKDEQDDDNKK
  transcriptional activation domain activity: 31400

## KSKKRKTGEQSDEDAVAAKKRKKSAGKKVAGEEKPKKARKSQAPAEAAGGRKS
  transcriptional activation domain activity: 16500

## KSKKRRRDDGSSDTADSDGNRGRSTGKKRQRSRRGSDDNDSEADARKRSRKRR
  transcriptional activation domain activity: 23600

## KSKKRSRVDEEDEEEYGASSSKAKAKKDKEKPAKKAAAKGKEKAAKGKASAKG
  transcriptional activation domain activity: 26200

## KSKKTEAEAEEEEVTEEVKPEKKEKKEKKEKKEKKRKRDAEEDAAETKPAEKA
  transcriptional activation domain activity: 17600

## KSKQKERERKRARAKANEKAKAEARKRKTKDGEKKEKRKQKEREKAKGKGKER
  transcriptional activation domain activity: 55000

## KSKSSRSSRRREGEEDDDRRRRRHRHRSRSHSRGRDGDNDDPKEKRRSRRHDD
  transcriptional activation domain activity: 38400

## KSKSSRSSRRREGEEDDDRRRRRHRHRSRSRSRSRGRGGGSDDGSKEQRRSSR
  transcriptional activation domain activity: 40100

## KSNDSSAEKDTRSMVFCETEKVSYTGANFGEDAARDVHCKYLVGVYSKSQKQL
  transcriptional activation domain activity: 37900

## KSNGTEGAGAEGSKGGEGSTGEGSKGEGSSGEGAKGGEGSKGEGAGAEGSKGG
  transcriptional activation domain activity: 36300

## KSPEKEATKDGDGKPEGTTGTGRGRGRGRGRGGGRGRGRGRGGAVAEKGSYKA
  transcriptional activation domain activity: < 6570

## KSPHMSAVESKPKEAKTVVEPKADKAAEVKKEEPKKEVVAAPEPVAAKPIAQI
  transcriptional activation domain activity: 35600

## KSPVKRKPKAEGASADGSPKKRKSKGEAADADGTPKKRGRKPKKAEPQPEIQG
  transcriptional activation domain activity: 33700

## KSRKRAKKSPEESEVESKHRRRRSRKAVEDENDENSHCKRTKKVAGAESEKAV
  transcriptional activation domain activity: 19700

## KSSEAAPAEENKPSPEKNGKGKQGEDKGGNNGKENKGGDKGGGKGAQSKKGKK
  transcriptional activation domain activity: 31600

## KSSKEKDTASVKRGSVESDDTPAAAAAATKGKQLSKDGDADDDSDESDEEKEQ
  transcriptional activation domain activity: 33700

## KSTARDTSAEVSSTKKRARSKAKKGDSDVEEDSDRGRSKTAKKSRKSTGAKSS
  transcriptional activation domain activity: 12800

## KSVLCDLVFTMFADLRDPSVSRRFATVDDLELWFSTTLIKALRHLVALFTEYY
  transcriptional activation domain activity: 50400

## KSVLERILVRGAMGSERHMKHELKVFYAMRGKLSWFIKWVHVVLRWVFAKSVL
  transcriptional activation domain activity: 48000

## KSVSRLHAKIEYDQEEDRFVLLVVGRNGAWVDGVWSASGTRACLGERSQIQIA
  transcriptional activation domain activity: 42000

## KSVVLERKLAIGQCRHLFTVNDNWLVSVWNDFHVGIVVRNMVFFLCRLVFDFM
  transcriptional activation domain activity: 42700

## KSWGKSLVGLMGRLKRQPICVLVKTDEINHLLHMILYVRENEETSCIKIVHFC
  transcriptional activation domain activity: 37900

## KSWYFPSLSFFFFSFLFSFLSFAFLSFFLFFSFPFSLLLLYLFLLGLALTADG
  transcriptional activation domain activity: 15600

## KSYVAILGYIMYPPTTRLVIHIRVWADALRALSSQAMLKTYLLTRGYQFRSIV
  transcriptional activation domain activity: 58900

## KTDKSKDRKTKKKKSHKATGSERPSSSRGEEPEKDEEPEKKEKRRKKRKEEKR
  transcriptional activation domain activity: 17900

## KTGEDRGRGRGRGRGKRKGEGRGGEGKTGEEGEEEEEEKGERREREREREKKK
  transcriptional activation domain activity: 23400

## KTHPQASAEADGEEDAEPEGQAKSRQPSRRRQSRGRGRRGGPQESDTESIARS
  transcriptional activation domain activity: 19300

## KTIFFCGGRFLTSRALWAFCLSMFLFVMPSVLFLIFTCPWLWHHISPAVPIIF
  transcriptional activation domain activity: 41300

## KTIGKQDPYCAARLGKEAKKTETDRRGGQTPRWDQELRFTVHDSPDYYQLKVS
  transcriptional activation domain activity: 55000

## KTIWRDVKEGGECSVEEMCLSYYRSEGWKGYHSEGGILKTLFAYLFYDIMFLY
  transcriptional activation domain activity: 65700

## KTKEGAAKNTKKSGERGKEKGLAGAKSKKSPINNSVKGKKSPSTKKTVKKAGK
  transcriptional activation domain activity: 31600

## KTPAAANKAGGGGAGGKSAGGRGKTQRARGGRVKQATTQKQTATPKQQQTAAK
  transcriptional activation domain activity: 24000

## KTQDESKPADGASTEQPAKKKRKRKQKRAQDGEGGEGAAAVGGGGGGEETQKA
  transcriptional activation domain activity: 33200

## KTRGFQEGVSLTVYDELARWEKYAYGCNELIFHPMRYWPTRGPFTKLFIRFIF
  transcriptional activation domain activity: 41600

## KTSNDLKYLFTFVEYHVFVSLIRRSLSQLDENKEKHEQMIKLYDDILKNIECI
  transcriptional activation domain activity: 24800

## KTTGPDARISHTSVQRFASYLGLRVALDRLRLQLAAATTIRHFISRLSRVLVF
  transcriptional activation domain activity: 50600

## KTVEEIWRISQGAVEGEEKGREREKAGLCVRACGASWHSQVLCAALVEVVGLS
  transcriptional activation domain activity: 41700

## KVAAGANGETDGEAKTKKKSSKRVSRRRQPGEEDDEEEAEGAGEGAEKAKKNK
  transcriptional activation domain activity: 20300

## KVAEPGSKVSLRAPVDPNAPAPKPKKGKDGKEIKEEPKMIEKVVDSIYLHVQT
  transcriptional activation domain activity: 41000

## KVAYRNPAADSEGWRRWGNDEARHGTLGVEEMERRIEALRKAKVGGGMVKVGF
  transcriptional activation domain activity: 35500

## KVDNGGKVDNSGKVDNGRKVDSRKIDDGRKVDDGRNVDNRGRVDEGGGVVKGG
  transcriptional activation domain activity: 19500
